From PMC4789156 (Translational research : the journal of laboratory and …, 2015) come the findings set out here.

This assay concerns the target Recombinant human Smad2 with C-terminal MYC/DDK tag (human, UniProt Q15796-1 1-467). As to the kind of experiment: co-IP.

Chain of Recombinant human Smad2 with C-terminal MYC/DDK tag (Q15796 whole entry): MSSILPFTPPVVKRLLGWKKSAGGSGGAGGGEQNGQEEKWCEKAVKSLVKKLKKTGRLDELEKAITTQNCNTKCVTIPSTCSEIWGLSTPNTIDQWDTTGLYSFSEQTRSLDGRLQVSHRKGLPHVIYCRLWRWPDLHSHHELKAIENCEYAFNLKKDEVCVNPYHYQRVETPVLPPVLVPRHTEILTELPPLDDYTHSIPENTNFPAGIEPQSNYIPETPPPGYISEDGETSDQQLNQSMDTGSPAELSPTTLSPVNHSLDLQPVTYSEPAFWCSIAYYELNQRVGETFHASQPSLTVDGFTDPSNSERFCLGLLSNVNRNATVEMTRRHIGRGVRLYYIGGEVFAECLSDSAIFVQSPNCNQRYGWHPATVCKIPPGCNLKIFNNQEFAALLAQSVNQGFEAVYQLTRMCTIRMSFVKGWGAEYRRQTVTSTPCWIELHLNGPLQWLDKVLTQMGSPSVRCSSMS

As to TRPASFWETS [M10 peptide (caspase-3 cleavage product of the hepatocyte growth factor receptor MET)], the binding result is reported as “binds”.
